Target: the molecule itself
Assay: SDS-PAGE and Western blot of the stirred peptide; ADan peptide 0.5 mg/mL in PBS without calcium and magnesium, stirred at room temperature for up to 48 h, aliquots at 2, 8, 24 and 48 h; blots with anti-ADan 1699 and the conformational anti-oligomer antibody F11G3

B1: ADan peptide (Danish amyloid) (peptide)
peptide: EASNCFAIRHFENKFAVETLICFNLFLNSQEKHY
notes: the C-terminal part differs from wild-type BRI2; also called ADan amyloid peptide; ADan recombinant peptide; source: synthetic peptide (ThermoFisher Scientific, Fmoc-based solid phase peptide synthesis, purified by HPLC)
- binding result: binds

From article PMC6390363, “Tau as a mediator of neurotoxicity associated to cerebral amyloid angiopathy” (Acta Neuropathologica Communications, 2019)
